# Assay results reported in the DeepSol protein solubility set.
# Assay: soluble on expression in E. coli; label from the status in PepcDB or PDB records
row,Sequence,soluble on expression in E. coli
1,MGSDKIHHHHHHMDSSIDLSLAYADSGVGEVLDQLDCELIGLKPVKTRIREIAALLLVDRARKDLDLASTMPSLHMSFTGRPGTGKTTVAIRISQILHRLGYLRKGHVVTVTRDDLVGQYVGHTAPKTREMIKRAQGGVLFIDEAYYLYKPGNERDYGAEAIEILLQDMESRRGDFVVIFAGYKDKMDAFYQSNPGLSSRVAHHIDFPDYSNRELLAIAQLFLVQQNYYFGDEAEGIFEDYIERRRQLPFFANARSIRNALDRTRLRQANRLFARMGEPLSRDELMTIEPADILASRVFQGEVEGRHPTQPLMESSE,not soluble
2,MSTINFANREINFKIVYYGPGLSGKTTNLKWIYSKVPEGRKGEMVSLATEDERTLFFDFLPLDIGEVKGFKTRFHLYTVPGQVFYNASRKLILRGVDGIVFVADSAPNRLRANAESMRNMRENLAEYGLTLDDVPIVIQVNKRDLPDALPVEMVRAVVDPEGKFPVLEAVATEGKGVFETLKEVSRLVLARVAGGS,soluble
3,MLSQLPLFAGGEIVRGFGRGSKELGIPTANFPLEVVKSLPESLPTGAYYGWANVDNGPVHKMVLSIGWNPFYNNKEKSVETHMLHDFNCDLYGQTLKICIVGYLRPERSFDSLESLIAAIRGDIEQAKAFLDEADKAKLKEAPFFTEKLCSSKLEHHHHHH,not soluble
4,MGSDKIHHHHHHMGASFNQAGFVKRIFTSHGTTLFVDTSSGELRHGLMEYSPNNVLLTKDGKSAHIRFVDGPTDIVYFTEYSAISGSKRIDGIDALNLMPDNTLTIVDLPRNKFGLVQNGTFLSARSDGRITLSAPLCRGWENFHFRKDASEVSGVIVSHRIDGKIITFFIQDRTDIIQSILFGGDFYERDTLDLIRDRSTPGKVFVDIGANIGNHSIFMSKFCSPSEVIVFEPNPKAIEILKLNVLLNACANINTSYLGLALGSKAAQMRVFSPDPNNMGRAQMLDDDDGNVKCVAGDLLLQQKPVGLLKIDVEGSEFEVLRGMQGTIETWRPNILIEVWPQSQQDLFSWCDSFRYVVQETFPTDNNYFLAPIERQS,not soluble
5,MSLDKDTVYAVVDIETTGTSVTDGDRIIQIGCVFVQHNQVINHFETDVNPLKEIPAAISRLTGITNKRVRHAPLFDDVAGTLYSLLTNTVFVAHNVNFDLPFINAELERVGYPALPIAAVDTVSLSQILLPTATSFRLRDLSRLFNIEHDNPHSADSDASATAELFIFLFRRLRALPMVTLQRMIDLQADLPLQTTTLFRVAQQLNEEGHHHHHH,not soluble
6,MEDDAPMNLCNEQFEEIEDSPIDDNDNESFYNADGDVELEEEEVHETPKNFKNGGRFKTNMTNPKVNDLTTIEEKNEDLRSAASSRSASRPASVMSDKSFSSQFEFQSGGENAIEEYTNQVFADENKADLLFPETSKFMNGASPPKDKHHSWEPSIHHYDKQPPPDIQTNSPVFGNLNHRKNKLIPQARAKPGANDNEIVERDNDENVPTTSDKSAFITSPMNSTNHDEKTSTPKRPTNRKIGQYQGPNFDLSSIYVGSPQHQNTSISTGQQMPTSSYSHAHSETMMTNQTINESMVRRVLNGNNKNQDLFAALEEARKRRAAQPSKPDFRINTTRTRVPIKPTSARHSGNVVSSTSNDNTTAASSKDLTTSRKAMETFRQNASMADATNSNTASMTSILSTISTARTDISRSSRNHGGGFSNTSVSTVIPANNGNVSLSHGRDGRDSVSSVRTMSRASSTSTVYAGSTFSGVSKPLRIHAKRVAFGCVAVGETLRVEVEVENISDRQCLVRASTDSTTPVYQILDNKLTMVDPKKSIKFQVSFSPSSVGRYQVIMSIEVPAQNFIHKIPMWGNGGIAKFVPTSPDLQQTINQSEYAMCTSCAKRISFKISNSAGTRDGFAMIKVFDSAMRQLPDGCVAFFPAPGFIVKKKSDKRVDIRIDSSYIDLHDENNFRTSSSLSTASTTSSFQRRILPGAKFFVHVVWGEETMRTRLRLLEVRTGQHQLIDGHDFTSFQFSDEEVLRAVPVGFPAIKPEDRDLFAASYRSFFINFFTSTTEFRAATSRKKKEICSNDDSTLLETTAFRNQTFVNDVTIVPNTRFSNRK,not soluble
7,SSTHGSRFPLCGGRRDHKGLTHIFNPPPKRFESILEGLFGPALLKDLSLFKDCEPESISDWTFDENCLFCCLRRDKVKGHLVGLDEPASGAGQEALLKQEQAKIIRFERQAEEFLNAVFYRKDSPWVSDPNIPLVAREIMQRMIQQFAAEYTSKNSSTQDPSQPNSTKNQSLPKASPVTTSPTAATTQNPVLSKLLMADQDSPLDLTVRKSQSEPSEQDGVLDLSTKKSPCAGSTSLSHSPGCSSTQGNGRPGRPSQYRPDGLRSGDGVPPRSLQDGTREGFGHSTSLKVPLARSLQISEELLSRNQLSTAASLGPSGLQNHGQHLILSREASWAKPHYEFNLSRMKFRGNGALSNISDLPFLAENSAFPKMALQAKQDGKKDVSHSSPVDLKIPQVRGMDLSWESRTGDQYSYSSLVMGSQTESALSKKLRAILPKQSRKSMLDAGPDSWGSDAEQSTSGQPYPTSDQEGDPGSKQPRKKRGRYRQYNSEILEEAISVVMSGKMSVSKAQSIYGIPHSTLEYKVKERLGTLKNPPKKKMKLMRSEGPDVSVKIELDPQGEAAQSANESKNE,soluble
8,MGSDKIHHHHHHMTPRANALPTDAGELYYSYARPADGALPSLSRQKGLLGIITFQTGFVGEGDGAKPEGILQIPLSGRGDDLCELWKTTQPVLAGTFGDITYRCSRDFLFGSIALAVADLPAGNHGLIHPPLQNAAELAYQQIFSLLDRHGYPGLLRIWNFVPDINGVSHGLEHYRQFNIGRQDAFLAHNRLPSRQNIPAASALGSVDGPLVVYFLAARRNSVAVENPRQISAYHYPQEYGPSSPTFSRAGWVDLGQQKILFISGTASIIGHQTRHGGNVAAQARESMANIAAVVAETNRVAAGSPYDLNDLSYKVYLRQFTDLPIVRAELDRLVTPKAPIFYLQADICRADLLVEIEATAGVLHGGMA,not soluble
9,GSSHHHHHHSSGLVPRGSQILCVGLVVLDVISLVDKYPKEDSEIRCLSQRWQRGGNASNSCTILSLLGAPCAFMGSMAPGHVADFVLDDLRRYSVDLRYTVFQTTGSVPIATVIINEASGSRTILYYDRSLPDVSATDFEKVDLTQFKWIHIEGRNASEQVKMLQRIDAHNTRQPPEQKIRVSVEVEKPREELFQLFGYGDVVFVSKDVAKHLGFQSAEEALRGLYGRVRKGAVLVCAWAEEGADALGPDGKLLHSDAFPPPRVVDTLGAGDTFNASVIFSLSQGRSVQEALRFGCQVAGKKCGLQGFDGIV,soluble
10,MGSDKIHHHHHHMNKYLNNINASYCCGCSACVHKCPKQCLRMSQDKDGFFFPIVNNREACIDCSLCAKVCPMENMVESDYPHTFYGAYNTNKTDIVNSSSGGIYPSLAKWIISQGGIVFGASLDDEHKLYHIGVSTESDIQKTIGSKYFQSEIRDTYVECKKELDKGRLVLYTGTPCQVHGLKRYLGKDYDNLYTADVICHGVPSSKMFDAYIDFLEKKHNGKLVDINFRDKKRNGWSITLRYTIEYSNDKRKDYYLINKLSEYFMAFLGGYIERESCYSCPFSSMRRPGDITMGDFWGYQFKRPDLKHDEGLSLIIVNSEHGKRIVDVLHRNGVQFNAVDEECVKASENKNLYKPTLRPEVRSVVYDELQNFGFEYIAKKYFRRTQTLRNKAKNYMPVALVNIIKKLK,not soluble
11,DWVIPPINLPENSRGPFPQELVRIRSDRDKNLSLRYSVTGPGADQPPTGIFIINPISGQLSVTKPLDRELIARFHLRAHAVDINGNQVENPIDIVINVIDMNDNRPEFLHQVWNGSVPEGSKPGTYVMTVTAIDADDPNALNGMLRYRIVSQAPSTPSPNMFTINNETGDIITVAAGLDREKVQQYTLIIQATDMEGNPTYGLSNTATAVITVTD,soluble
12,MSQPLNVAVVGATGSVGEALVGLLDERDFPLHRLHLLASAESAGQRMGFAESSLRVGDVDSFDFSSVGLAFFAAAAEVSRAHAERARAAGCSVIDLSGALEPSVAPPVMVSVNAERLASQAAPFLLSSPCAVAAELCEVLAPLLATLDCRQLNLTACLSVSSLGREGVKELARQTAELLNARPLEPRLFDRQIAFNLLAQVGAVDAEGHSAIERRIFAEVQALLGERIGPLNVTCIQAPVFFGDSLSVTLQCAEPVDLAAVTRVLDATKGIEWVGEGDYPTVVGDALGQDETYVGRVRAGQADPCQVNLWIVSDNVRKGAALNAVLLGELLIKHYL,soluble
13,MDVEKLNLDNIISRLLEVRGSKPGKNVQLTESEIKGLCQKSREIFLSQPILLELEAPLKICGDVHGQYYDLLRLFEYGGFPPESNYLFLGDYVDRGKQSLETICLLLAYKIKYPENFFLLRGNHECASINRIYGFYDECKRRYNIKLWKTFTDCFNCLPVAAIIDEKIFCCHGGLSPDLQSMEQIRRIMRPTDVPDQGLLCDLLWSDPDKDVTGWGENDRGVSFTFGPEVVAKFLHKHDLDLICRAHQVVEDGYEFFAKRQLVTLFSAPNYCGEFDNAGSMMTVDETLMCSFQILKPADKKKYPYGAGGVGSNRPVTPPRNAPAAQPKKGAKK,not soluble
14,GPGSMRTQTFPQQPRAPGMLPHLSNGAAAPAAPQVPAVQEHTDVVHDTQFDYYGLQLATASSDRTIGIHVARAGAPLNRVATLTGHEGPVWMVSWAHPRFGNLLASASYDQKAIIWKEIRQGAPKWTPVHVIDIHHGSVNAVQWAPEEYGPVVATASSDGTVAITAYRDGCWQPSVKLSNNSNQIAHAMGATSVTFAPFKSELADHVVVASGGCDGHVRLWVSASSPERGLGFELHQVIEAHADWVRDVAFCPTSPASRFVILASCGQDKTVVMYRKPWDQLCAETSEGVSQATEWERSVIEFAEPVWRLSWAPSGEMLVVTNAKSEVFVLREGVDFTEPWIKLPLKDFQQ,not soluble
15,QQKILENIRGIGTNTMTIFNGNGFGDRRSRHIQNLKISDANTLSKQSYIQSVTPNTSSSGILVVGNKSFTSANLYGIGEQYFDVEGLKLKQGRLLTEDDVDQSNQVVVLDESAKKAIFANENPLGKTVIFNKRPFRVIGVVSDQQLGGFPGNSLNLYSPYSTVLNKITGGSRIGSITVKISDDVNSTVAEKSLTELLKSLHGKKDFFIMNSDTIKQTIENTTGTMK,soluble
16,MGSDKIHHHHHHMKSLLAIYPGSIVSEELCIREGCLCFFDESNQRYISIPKTEISEKEVLVLQSFLTPADEGNQLSMKSPEENKWFSFLFSRGELPAYIKKRTRFVHFHLFGKIERTSFTEAVRHFWPVSFVIVWIHEDRGVIVEQESEAAAEKDELESLAKVLESDFYFSVRFYAGRFYEPDECLRKHYAREQAYFLFAEKRLPQVQSVTFEMIFPFLLLETEKEKLETLLSEEAELLFGSESELRKTIKLFIENNSNVTLTAKKLHLHRNSLQYRIDKFIERSGIDIKSYKGALLAYFICLQNESSE,not soluble
17,MICDNCKTREAVILQPHTGRKLCKECFIEDIRKRVEMEARKQEIVNSNKILLAVSGGKDSLVLADTLSQFIHPSRLIAFNINEGIKGYNRNEYVKKLEEYLKDLGIELIKSGFKEEVGFSLDEMLEASLKKKLNVSACTFCGGFRRKLINEAGIKVAADYVATGHNLDDEVQTIVINLIRGDLLRLIRFGDKPLMVSSKFVMRVKPLRKIYEWETTMYAHLKGFEFQETECPYISQKPTLRAKVRDLLYKLEEKKPGTLLRILEQFDEISEKIKKEYRLTNELPNCVICGEPTTPGRMICKNCELLIRSGLMPQEYQKYLPIS,not soluble
18,MGSDKIHHHHHHMYPECAKLPTFLRTVHEDVDAQARSLFTLDQNYMQVDPGPFCGTMATCDFGTGLVVSFEQVNKRVLQVAAVPFGTAQVALILEAGEPTTHNQVGRIRNAGVVMAPGAEARLSAGANTRVCLISIAGEAADHLRSRYNFDPDSLRADIFLDPAETTALRGLVTEAYQRFSSPQADRSFDQASAAAFHEAVLSVTAWTCASSARTQNQHRVAGDCRTTALTAAIRLIDHNLHNPVTVEWLARTLGVSRRSLEQAFGEAFDTSPGRYIKVLRLNSLRQMLRDPSNAEVSIGDLAARCGLWHQGRLASEFRELFGVLPSEARG,not soluble
